{"source": "paper PMC3819817", "key": {"[1]": {"target": "recombinant Arabidopsis thaliana Nfu2 without the plastidial targeting sequence (Arabidopsis thaliana) (UniProt Q93W20)", "test": "SEC"}, "[2]": {"target": "recombinant Arabidopsis thaliana Nfu2 without the plastidial targeting sequence (Arabidopsis thaliana) (UniProt Q93W20)", "test": "SEC", "remark": "listed apart in the source"}}, "note": "“And” between values parts separate entries of the source, which are not always exact repeats. Equal entries are not always repeated. Where two headings read alike, the source gives them in different places."}
{"substance": "recombinant Arabidopsis thaliana Nfu2 without the plastidial targeting sequence (from UniProt Q93W20 73-235) (natural protein)", "values": [{"measurement": "stoichiometry N", "setting": "[1]", "result": "4 and 2"}, {"measurement": "stoichiometry N", "setting": "[2]", "result": 2}]}
